{"source": "patent US20090226458A1", "biological_target": "Netrin-1-FlagM2 (recombinant netrin-1, Apotech)", "test": "ELISA: DCC-5Fbn 100 ng coated, netrin-1 0 to 800 ng, IL3-R values subtracted", "data": [{"substance": "DCC-5Fbn (recombinant soluble fifth fibronectin type III domain of DCC) (from UniProt P43146 846-942) (receptor)", "values": [{"measurement": "Kd", "value": 5, "unit": "nM"}]}]}
